Assay results: patent US10588972B2, “Phthalocyanine probes and uses thereof” (LI-COR, INC., priority 2014, dated 2020)

System: A431 cells
Assay: Caspase 3/7 assay, doses of IRDye 700DX-labeled EGF (Table 4)
Type: cell-based
Procedure: A431 cells were treated with IRDye® 700DX-labeled EGF at a concentration of about 0.1-1 μM for about 8 minutes and irradiated at about 32 J/cm^2.
Briefly, 150,000 cells were plated and incubated overnight at 37° C., 5% CO2. About 1 ml of the probe was added to the appropriate treatments. The cells were rinsed after the incubation period and imaged. The cells were irradiated with a small LED apparatus. The cells were further incubated at 37° C., 5% CO2, and then imaged at 2-3 hours post irradiation. The cells were then harvested and resuspended in 250 μl PBS. The cells were counted in NC-100™ NucleoCounter® (ChemoMetec A/S; Allerod, Denmark). The cells were analyzed according to manufacturer's protocol to perform the caspase3/7 assay (ImmunoChemistry Technologies, LCC, Bloomington, Minn.). NC indicates negative control, e.g., no probe.

[1] = 0.1 μM, Irradiation about 32 J/cm^2
[2] = 0.25 μM, Irradiation about 32 J/cm^2
[3] = 0.5 μM, Irradiation about 32 J/cm^2
[4] = 1 μM, Irradiation about 32 J/cm^2

B1: 700DX-EGF (conjugate, UniProt P01133 23-1207, looked up)
Pro-epidermal growth factor: PQHWSCPEGTLAGNGNSTCVGPAPFLIFSHGNSIFRIDTEGTNYEQLVVDAGVSVIMDFHYNEKRIYWVDLERQLLQRVFLNGSRQERVCNIEKNVSGMAINWINEEVIWSNQQEGIITVTDMKGNNSHILLSALKYPANVAVDPVERFIFWSSEVAGSLYRADLDGVGVKALLETSEKITAVSLDVLDKRLFWIQYNREGSNSLICSCDYDGGSVHISKHPTQHNLFAMSLFGDRIFYSTWKMKTIWIANKHTGKDMVRINLHSSFVPLGELKVVHPLAQPKAEDDTWEPEQKLCKLRKGNCSSTVCGQDLQSHLCMCAEGYALSRDRKYCEDVNECAFWNHGCTLGCKNTPGSYYCTCPVGFVLLPDGKRCHQLVSCPRNVSECSHDCVLTSEGPLCFCPEGSVLERDGKTCSGCSSPDNGGCSQLCVPLSPVSWECDCFPGYDLQLDEKSCAASGPQPFLLFANSQDIRHMHFDGTDYGTLLSQQMGMVYALDHDPVENKIYFAHTALKWIERANMDGSQRERLIEEGVDVPEGLAVDWIGRRFYWTDRGKSLIGRSDLNGKRSKIITKENISQPRGIAVHPMAKRLFWTDTGINPRIESSSLQGLGRLVIASSDLIWPSGITIDFLTDKLYWCDAKQSVIEMANLDGSKRRRLTQNDVGHPFAVAVFEDYVWFSDWAMPSVMRVNKRTGKDRVRLQGSMLKPSSLVVVHPLAKPGADPCLYQNGGCEHICKKRLGTAWCSCREGFMKASDGKTCLALDGHQLLAGGEVDLKNQVTPLDILSKTRVSEDNITESQHMLVAEIMVSDQDDCAPVGCSMYARCISEGEDATCQCLKGFAGDGKLCSDIDECEMGVPVCPPASSKCINTEGGYVCRCSEGYQGDGIHCLDIDECQLGEHSCGENASCTNTEGGYTCMCAGRLSEPGLICPDSTPPPHLREDDHHYSVRNSDSECPLSHDGYCLHDGVCMYIEALDKYACNCVVGYIGERCQYRDLKWWELRHAGHGQQQKVIVVAVCVVVLVMLLLLSLWGAHYYRTQKLLSKNPKNPYEESSRDVRSRRPADTEDGMSSCPQPWFVVIKEHQDLKNGGQPVAGEDGQAADGSMQPTSWRQEPQLCGMGTEQGCWIPVSSDKGSCPQVMERSFHMPSYGTQTLEGGVEKPHSLLSANPLWQQRALDPPHQMELTQ
modifications: Pro-epidermal growth factor IRDye 700DX conjugate
- Early % Apoptotic [1]: 8%
- Late % Apoptotic [1]: 11%
- % Healthy [2]: 61%
- % Necrotic [2]: 16%
- Cells/mL [2]: 4.8 × 10^5 Cells/mL
- Early % Apoptotic [2]: 5%
- Late % Apoptotic [2]: 18%
- % Healthy [3]: 52%
- % Necrotic [3]: 17%
- Cells/mL [3]: 4 × 10^5 Cells/mL
- Early % Apoptotic [3]: 6%
- Late % Apoptotic [3]: 26%
- % Healthy [4]: 52%
- % Necrotic [4]: 15%
- Cells/mL [4]: 4 × 10^5 Cells/mL
- Early % Apoptotic [4]: 9%
- Late % Apoptotic [4]: 24%
- % Healthy (1 μM, No Irradiation): 87%
- % Necrotic (1 μM, No Irradiation): 3%
- Cells/mL (1 μM, No Irradiation): 5.4 × 10^5 Cells/mL
- Early % Apoptotic (1 μM, No Irradiation): 6%
- Late % Apoptotic (1 μM, No Irradiation): 4%
- mode of cell death (irradiating light at about 32 J/cm^2): undergo apoptosis
